From patent US20230212587A1, “Mutant Hydroxyphenylpyruvate Dioxygenase Polypeptide, Encoding Gene Thereof and Use Therefor” (Beijing Dabeinong Biotechnology Co., Ltd., priority 2019, published 2023)
Substitutions are numbered along the chain they refer to. In names and notes the source's numbering stands.

B1: AsHPPDm-Q284A: Avena sativa HPPD mutant Q284A, SEQ ID NO: 420 (protein)
chain: MPPTPATATGAAAAAVTPEHAARSFPRVVRVNPRSDRFPVLSFHHVELWCADAASAAGRFSFALGAPLAARSDLSTGNSAHASLLLRSGALAFLFTAPYAPPPQEAATAAATASIPSFSADAARTFAAAHGLAVRSVGVRVADAAEAFRVSVAGGARPAFAPADLGHGFGLAEVELYGDVVLRFVSYPDETDLPFLPGFERVSSPGAVDYGLTRFDHVVGNVPEMAPVIDYMKGFLGFHEFAEFTAEDVGTTESGLNSVVLANNSEAVLLPLNEPVHGTKRRSAIQTYLEYHGGPGVQHIALASNDVLRTLREMRARTPMGGFEFMAPPQAKYYEGVRRIAGDVLSEEQIKECQELGVLVDRDDQGVLLQIFTKPVGDRPTFFLEMIQRIGCMEKDEVGQEYQKGGCGGFGKGNFSELFKSIEDYEKSLEVKQSVVAQKS
modifications: AsHPPDm-Q284A Amino Acid Sequence
B2: AsHPPDm-F415A: Avena sativa HPPD mutant F415A, SEQ ID NO: 424 (protein)
chain: B1 chain with A284Q, F415A
modifications: AsHPPDm-F415A Amino Acid Sequence
B3: AsHPPDm-L359W: Avena sativa HPPD mutant L359W, SEQ ID NO: 422 (protein)
chain: B1 chain with A284Q, L359W
modifications: AsHPPDm-L359W Amino Acid Sequence
B4: CsHPPD-02: native Cucumis sativus HPPD, SEQ ID NO: 117 (protein, listed as Cucumis sativus)
chain: MGKEADFPRAPSEATDGGATASQSEFELQGFDNFIRTNPKSDRFKVKRFHHIEFWCTDATNVARRFSWGLGMQIVAKSDLSTGNMTHASYLLRSGHLCFLFTAPYSPSIAAAQNLTPASTASIPSFDHSVCRSFSGTHGFGARAIALEVEDAEIAFRTSVAHGAKPSCPPIVLENRAVLSEVHLYGDVVLRYISYKNPVSGDNGENKPDEWFLPKFEAMEETASFPLDFGIRRLDHAVGNVPELGPAVSYLKGFTGFHEFAEFTAEDVGTSESGLNSMVLANNEEMVLLPINEPVFGTKRKSQIQTYLEHNEGAGVQHLALMSEDIFRTLREMRKRSSVGGFEFMPSPPPTYYKNLKSRAGDVLTDEQIKECEELGILVDKDDQGTLLQIFTKPVGDRPTIFIEIIQRLGCMMKDEEGKAFQKGGCGGFGKGNFSELFKSIEEYEKTLEAKRVSE
modifications: CsHPPD Amino Acid Sequence
B5: CsHPPDm-F372A-02: Cucumis sativus HPPD mutant F372A, SEQ ID NO: 120 (protein)
chain: B4 chain with F391A
modifications: CsHPPDm-F372A Amino Acid Sequence
B6: PfHPPDm-G413W: Pseudomonas fluorescens HPPD with G336W (position 413 of SEQ ID NO: 1), SEQ ID NO: 418 (protein)
chain: MADLYENPMGLMGFEFIEFASPTPGTLEPIFEIMGFTKVATHRSKNVHLYRQGEINLILNNEPNSIASYFAAEHGPSVCGMAFRVKDSQKAYNRALELGAQPIHIDTGPMELNLPAIKGIGGAPLYLIDRFGEGSSIYDIDFVYLEGVERNPVGAGLKVIDHLTHNVYRGRMVYWANFYEKLFNFREARYFDIKGEYTGLTSKAMSAPDGMIRIPLNEESSKGAGQIEEFLMQFNGEGIQHVAFLTDDLVKTWDALKKIGMRFMTAPPDTYYEMLEGRLPDHGEPVDQLQARGILLDGSSVEGDKRLLLQIFSETLMGPVFFEFIQRKGDDGFGEWNFKALFESIERDQVRRGVLTAD
modifications: PfHPPDm-G413W Amino Acid Sequence
B7: NtHPPDm-F372A-02: Nicotiana tabacum HPPD mutant F372A, SEQ ID NO: 114 (protein)
chain: MGKLETVTTTSAAAADDSSELTTNFKLVGFKNFIRTNPRSDFFSVKSFHHIEFWCGDATNTARRFSWSLGMPIAAKSDLSTGNSVHASYLLRPVSGSLQFLFTAPYSPSISTPSSAAIPSFSTSTHRSFTTTHGLGVRAVALEVENAYTAFSASVSRGAKPMFEPVTIDEQVAMAEVHLYGDVVLRFVSYLKDADNLVFLPGFEAMDETASYKELDYGIRRLDHAVGNVPELGPVVDYIKRFTGFHEFAEFTAEDVGTAESGLNSMVLANNDETVLLPLNEPVYGTKRKSQIQTYLEHNEGAGVQHLALVTEDIFKTLTEMRKRSGVGGFEFMPSPPPTYYKNLKNRAGDVLSDEQILACEELGILVDRDDQGTLLQIATKPVGDRPTIFIEIIQRIGCMLKDGKGQVYQKGGCGGFGKGNFSELFRSIEEYEKTLEAKQANQVAAA
modifications: NtHPPDm-F372A Amino Acid Sequence

Tested on: Arabidopsis thaliana T1 plants
Experiment: Topramezone tolerance of transgenic Arabidopsis thaliana T1 plants (pesticide damage grade by bleached leaf area, score, resistance evaluation)
Format: in vivo
Conditions: for tolerance to topramezone, in words: Arabidopsis thaliana T1 plants sprayed with topramezone; for Grade 0 / Grade 1 / Grade 2 / Grade 3: number of plants (of 20) in this grade; for Classification and statistics of pesticide damage grade Grade 0 / Classification and statistics of pesticide damage grade Grade 1 / Classification and statistics of pesticide damage grade Grade 2 / Classification and statistics of pesticide damage grade Grade 3 / Scores / Resistance evaluation: HPPDs from different species, 7 DAT; for Classification and statistics of pesticide damage grade Grade 0 / Classification and statistics of pesticide damage grade Grade 1 / Classification and statistics of pesticide damage grade Grade 2 / Classification and statistics of pesticide damage grade Grade 3: number of plants (of 16) in this grade
In short: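 Herbicide tolerance was judged per plant on a bleaching scale (grade 0 no bleaching to grade 3 fully bleached) 7 DAT. Topramezone doses were 0, 25, 50 and 100 g ai/ha on 18-day-old T1 and wild-type plants.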

[1] = non-372 position mutants, topramezone 25 g ai/ha (1x)
[2] = non-372 position mutants, topramezone 100 g ai/ha (4x)
[3] = non-372 position mutants, score for pesticide damage 0-100, topramezone 25 g ai/ha (1x)
[4] = non-372 position mutants, score for pesticide damage 0-100, topramezone 100 g ai/ha (4x)
[5] = score for pesticide damage 0-100, topramezone 25 g ai/ha (1x)
[6] = score for pesticide damage 0-100, topramezone 100 g ai/ha (4x)
[7] = topramezone 25 g ai/ha, mutation combination, Table 8
[8] = topramezone 100 g ai/ha, mutation combination, Table 8

| Molecule | tolerance to topramezone, in words | Grade 0 [1] | Grade 1 [1] | Grade 2 [1] | Grade 3 [1] | Grade 0 [2] | Grade 1 [2] | Grade 2 [2] | Grade 3 [2] | score [3] | score [4] | Resistance Grade [1] | Resistance Grade [2] | Classification and statistics of pesticide damage grade Grade 0 (topramezone 25 g ai/ha (1x)) | Classification and statistics of pesticide damage grade Grade 1 (topramezone 25 g ai/ha (1x)) | Classification and statistics of pesticide damage grade Grade 2 (topramezone 25 g ai/ha (1x)) | Classification and statistics of pesticide damage grade Grade 3 (topramezone 25 g ai/ha (1x)) | Classification and statistics of pesticide damage grade Grade 0 (topramezone 100 g ai/ha (4x)) | Classification and statistics of pesticide damage grade Grade 1 (topramezone 100 g ai/ha (4x)) | Classification and statistics of pesticide damage grade Grade 2 (topramezone 100 g ai/ha (4x)) | other results |
| --- | --- | --- | --- | --- | --- | --- | --- | --- | --- | --- | --- | --- | --- | --- | --- | --- | --- | --- | --- | --- | --- |
| B1 | no significant difference | 0 | 2 | 16 | 2 | 0 | 0 | 5 | 15 | 67 | 92 | poorly resistant (poorly resistant plants (scores 34-67)) | non-resistant (non-resistant plants (scores 68-100)) | – | – | – | – | – | – | – | – |
| B2 | no significant difference | 0 | 6 | 12 | 2 | 0 | 0 | 0 | 20 | 60 | 100 | poorly resistant (poorly resistant plants (scores 34-67)) | non-resistant (non-resistant plants (scores 68-100)) | – | – | – | – | – | – | – | – |
| B3 | no significant difference | 0 | 0 | 2 | 18 | 0 | 0 | 0 | 20 | 97 | 100 | non-resistant (non-resistant plants (scores 68-100)) | non-resistant (non-resistant plants (scores 68-100)) | – | – | – | – | – | – | – | – |
| B4 | – | – | – | – | – | – | – | – | – | – | – | – | – | 0 | 0 | 0 | 16 | 0 | 0 | 0 | Classification and statistics of pesticide damage grade Grade 3 (topramezone 100 g ai/ha (4x)): 16; Scores [5]: 100; Scores [6]: 100; Resistance evaluation (topramezone 25 g ai/ha (1x)): non-resistant (non-resistant plants (scores 68-100)); Resistance evaluation (topramezone 100 g ai/ha (4x)): non-resistant (non-resistant plants (scores 68-100)) |
| B5 | – | – | – | – | – | – | – | – | – | – | – | – | – | 0 | 0 | 16 | 0 | 0 | 0 | 0 | Classification and statistics of pesticide damage grade Grade 3 (topramezone 100 g ai/ha (4x)): 16; Scores [5]: 67; Scores [6]: 100; Resistance evaluation (topramezone 25 g ai/ha (1x)): poorly resistant (poorly resistant plants (scores 34-67)); Resistance evaluation (topramezone 100 g ai/ha (4x)): non-resistant (non-resistant plants (scores 68-100)) |
| B6 | a certain tolerance to low concentration of topramezone | – | – | – | – | – | – | – | – | – | – | – | – | – | – | – | – | – | – | – | Grade 0 (number of plants) [7]: 2; Grade 1 (number of plants) [7]: 18; Grade 2 (number of plants) [7]: 0; Grade 3 (number of plants) [7]: 0; Resistance Grade [7]: Moderately resistant; score [7]: 30; Grade 0 (number of plants) [8]: 0; Grade 1 (number of plants) [8]: 0; Grade 2 (number of plants) [8]: 10; Grade 3 (number of plants) [8]: 10; Resistance Grade [8]: Non-resistant; score [8]: 83 |
| B7 | – | – | – | – | – | – | – | – | – | – | – | – | – | 0 | 6 | 10 | 0 | 0 | 0 | 0 | Classification and statistics of pesticide damage grade Grade 3 (topramezone 100 g ai/ha (4x)): 16; Scores [5]: 54; Scores [6]: 100; Resistance evaluation (topramezone 25 g ai/ha (1x)): poorly resistant (poorly resistant plants (scores 34-67)); Resistance evaluation (topramezone 100 g ai/ha (4x)): non-resistant (non-resistant plants (scores 68-100)) |
